Source: patent publication US20090011988A1 (Genentech, published 2009)
Residue numbers refer to the chain shown, from its start. In names and notes the source's numbering stands. No end group written: not given here.

T1: human IGFBP-1 (human, UniProt P08833 26-259)
T1 sequence (looked up): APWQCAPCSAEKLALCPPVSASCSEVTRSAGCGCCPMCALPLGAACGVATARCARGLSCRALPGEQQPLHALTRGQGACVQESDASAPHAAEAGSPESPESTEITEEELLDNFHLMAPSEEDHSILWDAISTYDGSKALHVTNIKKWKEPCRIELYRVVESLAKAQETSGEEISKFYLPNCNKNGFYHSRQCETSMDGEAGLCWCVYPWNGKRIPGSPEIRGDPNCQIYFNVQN

B1: 23B3.2 (peptide)
peptide displayed on M13 phage as a fusion to g8p: EVLLCSDGPQLYLCELYA
modifications: not fully specified (bridges); cysteine pairing not given here; also: displayed on phage coat protein g8
notes: whole phage particle in the assay; also called peptide-phage clone 23B3.2 (g8 display)
B2: IGF-1 D45A displayed on phage (ligand, not shown: large carriers; small tags and cut ends)
chain: SPETLCGAELVDALQFVCGDRGFYFNKPTGYGSSSRRAPQTGIVAECCFRSCDLRRLEMYCAPLKPAKSV
notes: G1S-A70V background
B3: IGF-1 S51A displayed on phage (ligand, not shown: large carriers; small tags and cut ends)
chain: B2 chain with A45D, S51A
modifications: not fully specified; ends and bridges not checked
notes: G1S-A70V background
B4: IGF-1 D53A displayed on phage (ligand, not shown: large carriers; small tags and cut ends)
chain: B2 chain with A45D, D53A
modifications: ends and bridges not checked; also: displayed on M13 phage, fused to g3p fragment (249-406) via amber-codon residue
notes: G1S-A70V background
B5: IGF-1 R55A displayed on phage (ligand, not shown: large carriers; small tags and cut ends)
chain: B2 chain with A45D, R55A
modifications: not fully specified; ends and bridges not checked
notes: G1S-A70V background
B6: IGF-1 F49A displayed on phage (ligand, not shown: large carriers; small tags and cut ends)
chain: B2 chain with A45D, F49A
notes: G1S-A70V background; also called IGF-F49A phage
B7: IGF-1 E58A displayed on phage (ligand, not shown: large carriers; small tags and cut ends)
chain: B2 chain with A45D, E58A
modifications: ends and bridges not checked; also: displayed on M13 phage, fused to g3p fragment (249-406) via amber-codon residue
notes: G1S-A70V background
B8: IGF-1 L54A displayed on phage (ligand, not shown: large carriers; small tags and cut ends)
chain: B2 chain with A45D, L54A
modifications: ends and bridges not checked; also: displayed on M13 phage, fused to g3p fragment (249-406) via amber-codon residue
notes: G1S-A70V background
B9: IGF-1 R50A displayed on phage (ligand, not shown: large carriers; small tags and cut ends)
chain: B2 chain with A45D, R50A
notes: G1S-A70V background
B10: IGF-1 T41A displayed on phage (ligand, not shown: large carriers; small tags and cut ends)
chain: B2 chain with T41A, A45D
notes: G1S-A70V background
B11: IGF-1 E46A displayed on phage (ligand, not shown: large carriers; small tags and cut ends)
chain: B2 chain with A45D, E46A
notes: G1S-A70V background
B12: IGF-1 M59A displayed on phage (ligand, not shown: large carriers; small tags and cut ends)
chain: B2 chain with A45D, M59A
modifications: not fully specified; ends and bridges not checked
notes: G1S-A70V background
B13: IGF-1 L57A displayed on phage (ligand, not shown: large carriers; small tags and cut ends)
chain: B2 chain with A45D, L57A
modifications: not fully specified; ends and bridges not checked
notes: G1S-A70V background
B14: IGF-1 V44A displayed on phage (ligand, not shown: large carriers; small tags and cut ends)
chain: B2 chain with V44A, A45D
notes: G1S-A70V background
B15: IGF-1 R56A displayed on phage (ligand, not shown: large carriers; small tags and cut ends)
chain: B2 chain with A45D, R56A
modifications: not fully specified; ends and bridges not checked
notes: G1S-A70V background
B16: IGF-1 I43A displayed on phage (ligand, not shown: large carriers; small tags and cut ends)
chain: B2 chain with I43A, A45D
notes: G1S-A70V background
B17: IGF-1 G42A displayed on phage (ligand, not shown: large carriers; small tags and cut ends)
chain: B2 chain with G42A, A45D
notes: G1S-A70V background
B18: 23B3.1 (peptide)
peptide displayed on M13 phage as a fusion to g8p: TGVDCQCGPVHCVCMDWA
notes: whole phage particle in the assay; also called peptide-phage clone 23B3.1 (g8 display)
B19: 23B3.4 (peptide)
peptide displayed on M13 phage as a fusion to g8p: SGVECVWGPQWGFCVEEY
modifications: not fully specified (bridges); cysteine pairing not given here; also: displayed on phage coat protein g8
notes: whole phage particle in the assay; also called peptide-phage clone 23B3.4 (g8 display)
B20: 23B3.5 (peptide)
peptide displayed on M13 phage as a fusion to g8p: DKEVCYLGPETWLCFWWP
modifications: not fully specified (bridges); cysteine pairing not given here; also: displayed on phage coat protein g8
notes: whole phage particle in the assay; also called peptide-phage clone 23B3.5 (g8 display)
B21: 23A3.1 (peptide)
peptide displayed on M13 phage as a fusion to g8p: EPWLCQYYEAAMLYLCWEEG
modifications: not fully specified (bridges); cysteine pairing not given here; also: displayed on phage coat protein g8
notes: whole phage particle in the assay; also called peptide-phage clone 23A3.1 (g8 display)
B22: Ala(1-3)-IGF-1 displayed on phage (ligand, bacteriophage M13)
chain: AAATLCGAELVDALQFVCGDRGFYFNKPTGYGSSSRRAPQTGIVDECCFRSCDLRRLEMYCAPLKPAKSVSGGGSGSGDFDYEKMANANKGAMTENADENALQSDAKGKLDSVATDYGAAIDGFIGDVSGLANGNGATGDFAGSNSQMAQVGDGDNSPLMNNFRQYLPSLPQSVECRPFVFSAGKPYEFSIDCDKINLFRGVFAFLLYVATFMYVFSTFANILRNKES
notes: range 249-406
B23: IGF-1 P2A displayed on phage (ligand, bacteriophage M13)
chain: B22 chain with A1S, A3E
notes: range 249-406; G1S-A70V background
B24: 23A3.4 (peptide)
peptide displayed on M13 phage as a fusion to g8p: EPWLCQYYEAAMLYLCWEEG
modifications: not fully specified (bridges); cysteine pairing not given here; also: displayed on phage coat protein g8
notes: whole phage particle in the assay; also called peptide-phage clone 23A3.4 (g8 display)

Assays:
[1] = molecular target: T2, recombinant human IGFBP-3 (human, UniProt P17936 28-291); assay: competitive phage ELISA
Description: (§1) E. coli cells (XL1-Blue, Stratagene) freshly transformed with phagemid vector were grown overnight in 5 mL 2YT medium (Sambrook et al., supra) in the presence of M13-VCS helper phage (Stratagene). Phage particles were harvested and resuspended in PBS buffer as described in Lowman, H. B., “Phage Display of Peptide Libraries on Protein Scaffolds,” in Cabilly, S. (ed.), Combinatorial Peptide Library Protocols (Humana Press Inc.: Totowa, N.J., 1998), pp. 249-264. Then phage concentrations were normalized to yield a maximal ELISA signal of 0.2-0.4 for each mutant (Lowman, in Cabilly, S. (ed.), supra). Threefold serial dilutions of soluble competitor were prepared on non-absorbent microtiter plates (Nunc, F, 96 wells) with binding buffer (0.5% TWEEN 20%/PBS) containing phage at the previously determined concentrations. […] After blocking, the plates containing immobilized target were washed with 0.05% TWEEN™/PBS buffer and subsequently incubated with 80 μl/well of the premixed phage-competitor solutions for 1 hour at room temperature. […] IC₅₀ values were determined by fitting the binding data to a generic saturation curve (Lowman, in Cabilly, S. (ed.), supra). At least two individual clones of each IGF-1 mutant were assayed. Numbers in Table XIII represent mean±standard deviation of individually assessed IC₅₀ values.

human IGFBP-1 = molecular target: T1, human IGFBP-1; assay: competitive phage ELISA
Description: as §1

[2] = molecular target: T2, recombinant human IGFBP-3; assay: phage ELISA (IGF-blocking phage assay): g8 peptide-phage on an IGFBP-3-coated plate, without and with IGF-1; OD492
Description: The plates were then washed ten times, as above, and a solution of rabbit anti-phage antibody mixed with a goat-anti-rabbit conjugate of horseradish peroxidase was added. After an incubation of 1 hour at room temperature, the plates were developed with a chromogenic substrate, o-phenylenediamine (Sigma). The reaction was stopped with addition of ½ volume of 2.5 M H₂SO₄. Optical density at 490 nm was measured on a spectrophotometric plate reader.
In each case, the phagemid clone was grown from a single colony overnight at 37° C. in a culture volume of 5 ml. The phage particles were prepared as described above.

T2 sequence (P17936 28-291 limits assumed): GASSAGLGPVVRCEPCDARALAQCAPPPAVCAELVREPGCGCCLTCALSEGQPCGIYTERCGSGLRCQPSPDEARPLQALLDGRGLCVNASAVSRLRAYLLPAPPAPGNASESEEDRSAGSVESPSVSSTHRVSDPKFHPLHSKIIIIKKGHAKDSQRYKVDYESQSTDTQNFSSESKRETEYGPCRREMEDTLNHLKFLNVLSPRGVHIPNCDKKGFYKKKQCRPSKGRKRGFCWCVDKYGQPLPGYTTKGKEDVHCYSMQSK

| Molecule | IC50 [1] [nM] | relative IC50 (mut/G1S-A70V) [1] | IC50 (human IGFBP-1) [nM] | relative IC50 (mut/G1S-A70V) (human IGFBP-1) | binding result [2] |
| --- | --- | --- | --- | --- | --- |
| IGF-1 G22A displayed on phage (from UniProt P69168 267-424) (ligand) | 2.07 | 2.8 | – | – | – |
| IGF-1 L14A displayed on phage (from UniProt P69168 267-424) (ligand) | – | – | 36.7 | 4.5 | – |
| IGF-1 V17A displayed on phage (from UniProt P69168 267-424) (ligand) | 3.67 | 4.9 | 42.9 | 5.2 | – |
| IGF-1 D12A displayed on phage (from UniProt P69168 267-424) (ligand) | – | – | 4.3 | 0.5 | – |
| IGF-1 Q15A displayed on phage (from UniProt P69168 267-424) (ligand) | – | 1.7 | – | – | – |
| IGF-1 Y24A displayed on phage (from UniProt P69168 267-424) (ligand) | 2.53 | 3.4 | – | – | – |
| IGF-1 F25A displayed on phage (from UniProt P69168 267-424) (ligand) | 3.69 | 4.9 | 181 | 22.1 | – |
| IGF-1 L10A displayed on phage (from UniProt P69168 267-424) (ligand) | 3.55 | 4.7 | 311 | 37.9 | – |
| IGF-1 F23A displayed on phage (from UniProt P69168 267-424) (ligand) | 2.18 | 2.9 | – | – | – |
| IGF-1 P28A displayed on phage (from UniProt P69168 267-424) (ligand) | 1.41 | 1.9 | – | – | – |
| IGF-1 D20A displayed on phage (from UniProt P69168 267-424) (ligand) | 1.11 | 1.5 | – | – | – |
| B1 | – | – | – | – | binds |
| B2 | 0.69 | – | 4.7 | – | – |
| B3 | 0.65 | – | 13.4 | – | – |
| B4 | 1.05 | – | 15.3 | – | – |
| B5 | 0.66 | – | 9 | – | – |
| B6 | 2.72 | – | – | > 100 | – |
| B7 | 1.03 | – | 11.9 | – | – |

| Molecule | IC50 [1] [nM] | relative IC50 (mut/G1S-A70V) [1] | IC50 (human IGFBP-1) [nM] | relative IC50 (mut/G1S-A70V) (human IGFBP-1) | binding result [2] |
| --- | --- | --- | --- | --- | --- |
| B8 | 1.83 | – | 23.1 | – | – |
| B9 | 0.64 | – | 16.2 | – | – |
| B10 | 0.43 | – | 13.7 | – | – |
| B11 | 0.94 | – | 7.9 | – | – |
| B12 | 0.74 | – | 13.1 | – | – |
| B13 | 1.78 | – | 21.8 | – | – |
| B14 | 1.03 | – | 18.8 | – | – |
| B15 | 1 | – | 13.1 | – | – |
| B16 | 1.17 | – | 31.3 | – | – |
| B17 | 0.53 | – | 15.7 | – | – |
| B18 | – | – | – | – | binds |
| B19 | – | – | – | – | binds |
| B20 | – | – | – | – | binds |
| B21 | – | – | – | – | binds |
| B22 | 1.12 | – | 90.4 | – | – |
| B23 | 0.81 | – | 11 | – | – |
| B24 | – | – | – | – | binds |
